B1: KIAA0774 (parent)
chain: FEDEVKRLGWQQQAELQELEERLQ
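Note: lentivirally expressed fusions sorted by FACS into six bins by GFP to DsRed ratio, PSI derived from sequencing read proportions per bin multiplied by bin number.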

The variants in the data set derive from B1. Put plainly: protein stability index of a GFP-peptide fusion (GPS, HEK-293T) (PSI 1-6); higher = more stable. To be noted: c terminus: a fixed tail appended.
Take FEDEVKRLGWQQQAELQELCERLQ [E20C]: the protein stability index stood at 4.34.
For the variant FEDEVKRLGWQQQAELQELPERLQ [E20P], the protein stability index was 4.8.
With FEDEVKRLGWQQQAELQELQERLQ [E20Q], the protein stability index was found to be 3.9.
Consider FEDEVKRLGWQQQAELQELGERLQ [E20G], for which the protein stability index was found to be 3.05.
As for FEDEVKRLGWQQQAELQELVERLQ [E20V], the figure is 3.49; as for FEDEVKRLGWQQQAELQELHERLQ [E20H], 4.29.
Turning to FEDEVKRLGWQQQAELQELTERLQ [E20T], the protein stability index stood at 3.53.
Consider FEDEVKRLGWQQQAELQELAERLQ [E20A], for which the protein stability index was 4.08.
For FEDEVKRLGWQQQAELQELKERLQ [E20K] the value was 4.4.
As for FEDEVKRLGWQQQAELQELYERLQ [E20Y], the figure is 3.71; as for FEDEVKRLGWQQQAELQELSERLQ [E20S], 4.49.
For the variant FEDEVKRLGWQQQAELQELFERLQ [E20F], the protein stability index was 2.51.
FEDEVKRLGWQQQAELQELEERLS [Q24S]: the protein stability index was found to be 4.01.
For FEDEVKRLGWQQQAELQELEERLH [Q24H] the value was 3.93; for FEDEVKRLGWQQQAELQELEERLN [Q24N], 4.48.
As for FEDEVKRLGWQQQAELQELEERLM [Q24M], the figure is 3.92.
As for FEDEVKRLGWQQQAELQELEERLC [Q24C], the figure is 4.22.
Consider FEDEVKRLGWQQQAELQELEERLA [Q24A], for which the protein stability index was found to be 3.81.
As for FEDEVKRLGWQQQAELQELEERLP [Q24P], the figure is 4.96.
For FEDEVKRLGWQQQAELQELEERLG [Q24G] the value was 4.62.
As for FEDEVKRLGWQQQAELQELEERLF [Q24F], the protein stability index came to 3.28.
With FEDEVKRLGWQQQAELQELEERLV [Q24V], the protein stability index was 3.12.
In the case of FEDEVKRLGWQQQAELQELEERLI [Q24I], the protein stability index is 3.41.
As for FEDEVKRLGWQQQAELQELEERLT [Q24T], the figure is 3.99.
For FEDEVKRLGWQQQAELQELEERLY [Q24Y] the value was 3.82.
For FEDEVKRLGWQQQAELQELEERLL [Q24L] the value was 3.48; for FEDEVKRLGWQQQAELQELEERLD [Q24D], 3.98; for FEDEVKRLGWQQQAELQELEERLK [Q24K], 4.73.
For FEDEVKRLGWQQQAELQELEERLW [Q24W], the protein stability index worked out at 3.49.
As for FEDEVKRLGWQQQAELQELEERLE [Q24E], the figure is 3.8; as for FEDEVKRLGWQQQAELQELEERLR [Q24R], 4.14.
For FEDEVKRLGWQQQAEYQELEERLQ [L16Y] the value was 4.13.
As for FEDEVKRLGWQQQAEIQELEERLQ [L16I], the figure is 3.89; as for FEDEVKRLGWQQQAEEQELEERLQ [L16E], 5.1.
For FEDEVKRLGWQQQAEFQELEERLQ [L16F], the protein stability index was determined as 4.15.
As for FEDEVKRLGWQQQAEVQELEERLQ [L16V], the figure is 4.86; as for FEDEVKRLGWQQQAEQQELEERLQ [L16Q], 4.09.
For FEDEVKRLGWQQQAESQELEERLQ [L16S] the value was 4.91.
As for FEDEVKRLGWQQQAERQELEERLQ [L16R], the figure is 4.04; as for FEDEVKRLGWQQQAEKQELEERLQ [L16K], 4.88; as for FEDEVKRLGWQQQAEWQELEERLQ [L16W], 3.93.
Take FEDEVKRLGWQQQAEGQELEERLQ [L16G]: the protein stability index was 5.23.
For FEDEVKRLGWQQQAENQELEERLQ [L16N] the value was 4.87; for FEDEVKRLGWQQQAECQELEERLQ [L16C], 4.75; for FEDEVKRLGWQQQAETQELEERLQ [L16T], 5.08.
For FEDEVKRLGWQQQAEAQELEERLQ [L16A] the value was 4.34; for FEDEVKRLGWQQQAEPQELEERLQ [L16P], 5.24.
As for FEDEVKRLGWQQQAEDQELEERLQ [L16D], the figure is 5.11; as for FEDEVKRLGWQQQAEHQELEERLQ [L16H], 4.84.
With FEDEVKRLGWQQQAEMQELEERLQ [L16M], the protein stability index was found to be 4.48.
With FEDEVKRLGWQQQAELQELEVRLQ [E21V], the protein stability index was 4.14.
For FEDEVKRLGWQQQAELQELEKRLQ [E21K] the value was 4.76; for FEDEVKRLGWQQQAELQELEPRLQ [E21P], 4.51; for FEDEVKRLGWQQQAELQELECRLQ [E21C], 4.38.
As for FEDEVKRLGWQQQAELQELEDRLQ [E21D], the figure is 4.27; as for FEDEVKRLGWQQQAELQELEMRLQ [E21M], 4.32; as for FEDEVKRLGWQQQAELQELESRLQ [E21S], 4.17.
Turning to FEDEVKRLGWQQQAELQELENRLQ [E21N], the protein stability index was 3.17.
For FEDEVKRLGWQQQAELQELEYRLQ [E21Y], the protein stability index turned out to be 3.88.
As for FEDEVKRLGWQQQAELQELEGRLQ [E21G], the figure is 4.76; as for FEDEVKRLGWQQQAELQELEFRLQ [E21F], 4.07.
Take FEDEVKRLGWQQQAELQELEHRLQ [E21H]: the protein stability index turned out to be 4.41.
Turning to FEDEVKRLGWQQQAELQELETRLQ [E21T], the protein stability index came out at 4.69.
On to FEDEVKRLGWQQQAELQELEARLQ [E21A], for which the protein stability index came to 4.69.
For FEDEVKRLGWQQQAELQELEQRLQ [E21Q] the value was 4.67; for FEDEVKRLGWQQQAELQELEWRLQ [E21W], 2.91; for FEDEVKRLGWQQQAELQELERRLQ [E21R], 4.46.
For FEDEVKRLGWQQQAELQELELRLQ [E21L] the value was 4.71.
Take FEDEVKRLGWQQQAELQELEIRLQ [E21I]: the protein stability index turned out to be 3.79.
As to FEDEVKRLGWQQQAELEELEERLQ [Q17E], the protein stability index turned out to be 3.12.
For FEDEVKRLGWQQQAELIELEERLQ [Q17I] the value was 4.25; for FEDEVKRLGWQQQAELHELEERLQ [Q17H], 4.34; for FEDEVKRLGWQQQAELRELEERLQ [Q17R], 4.71.
For FEDEVKRLGWQQQAELAELEERLQ [Q17A] the value was 4.22.
For FEDEVKRLGWQQQAELDELEERLQ [Q17D] the value was 3.55; for FEDEVKRLGWQQQAELGELEERLQ [Q17G], 5.2.
Regarding FEDEVKRLGWQQQAELPELEERLQ [Q17P], the protein stability index is 4.91.
For FEDEVKRLGWQQQAELYELEERLQ [Q17Y] the value was 3.26.
On to FEDEVKRLGWQQQAELFELEERLQ [Q17F], for which the protein stability index is 3.98.
As to FEDEVKRLGWQQQAELVELEERLQ [Q17V], the protein stability index stood at 4.51.
Consider FEDEVKRLGWQQQAELTELEERLQ [Q17T], for which the protein stability index amounted to 4.78.
As for FEDEVKRLGWQQQAELKELEERLQ [Q17K], the figure is 4.88; as for FEDEVKRLGWQQQAELCELEERLQ [Q17C], 4.01.
For FEDEVKRLGWQQQAELSELEERLQ [Q17S] the value was 4.75.
For FEDEVKRLGWQQQAELNELEERLQ [Q17N] the value was 5.34.
Take FEDEVKRLGWQQQAELLELEERLQ [Q17L]: the protein stability index amounted to 4.54.
For FEDEVKRLGWQQQAELWELEERLQ [Q17W] the value was 2.31; for FEDEVKRLGWQQQAELMELEERLQ [Q17M], 4.57; for FEDEVKRLGWQQQATLQELEERLQ [E15T], 3.87.
For FEDEVKRLGWQQQAWLQELEERLQ [E15W] the value was 2.85; for FEDEVKRLGWQQQASLQELEERLQ [E15S], 4.05; for FEDEVKRLGWQQQAYLQELEERLQ [E15Y], 2.65.
As for FEDEVKRLGWQQQARLQELEERLQ [E15R], the figure is 2.92.
Consider FEDEVKRLGWQQQAVLQELEERLQ [E15V], for which the protein stability index was determined as 3.65.

The values above are taken from the supplement of paper PMC10567573.
